{"source": "patent US20160272690A1", "biological_target": "TEAD", "sequence (P28347 209-426)": "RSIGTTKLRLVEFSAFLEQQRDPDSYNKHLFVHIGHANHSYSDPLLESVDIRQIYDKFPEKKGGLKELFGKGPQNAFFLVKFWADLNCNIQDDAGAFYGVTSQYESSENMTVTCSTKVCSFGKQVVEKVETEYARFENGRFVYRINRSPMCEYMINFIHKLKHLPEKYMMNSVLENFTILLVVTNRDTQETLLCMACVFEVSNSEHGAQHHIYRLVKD", "assay": "IC50 for TEAD binding (TR-FRET test)", "note": "Bridges are numbered along the chain shown (N, C = ends). Where no end group is shown, it is not given here. [ ]: non-standard residue; d: D form. hCys = N[C@@H](CCS)C(=O)O; Orn = NCCC[C@H](N)C(=O)O; Dab = NCC[C@H](N)C(=O)O", "data": [{"binder": "VPF[hCys]LR[Orn]LPDSFCKPPE (disulfide 4-13)", "note": "[polypeptide represented by SEQ ID NO.: 5]", "values": [{"measurement": "IC50", "value": 43, "unit": "nM"}]}, {"binder": "VPF[hCys]LR[Dab]LPDSFCKPPE (disulfide 4-13)", "note": "[polypeptide represented by SEQ ID NO.: 6]", "values": [{"measurement": "IC50", "value": 28, "unit": "nM"}]}]}
